Measured values reported in patent US20130230562.

Target: ApoHsp (cage protein formed by the fusion protein of Hsp, DEVD motif and histidine polymer, labelled with Cy5.5 and BHQ3)

B1: caspase-9 (NCBI accession no: NP-001220.2), human, purchased from R&D Systems (protein)
chain: MDEADRRLLRRCRLRLVEELQVDQLWDALLSRELFRPHMIEDIQRAGSGSRRDQARQLIIDLETRGSQALPLFISCLEDTGQDMLASFLRTNRQAAKLSKPTLENLTPVVLRPEIRKPEVLRPETPRPVDIGSGGFGDVGALESLRGNADLAYILSMEPCGHCLIINNVNFCRESGLRTRTGSNIDCEKLRRRFSSLHFMVEVKGDLTAKKMVLALLELAQQDHGALDCCVVVILSHGCQASHLQFPGAVYGTDGCPVSVEKIVNIFNGTSCPSLGGKPKLFFIQACGGEQKDHGFEVASTSPEDESPGSNPEPDATPFQEGLRTFDQLDAISSLPTPSDIFVSYSTFPGFVSWRDPKSGSWYVETLDDIFEQWAHSEDLQSLLLRVANAVSVKGIYKQMPGCFNFLRKKLFFKTS
fluorescence signal (Cy5.5 dequenching after cleavage, 96-well plate, 37 C, 2 hours): fluorescence did not occur in reactions with another two capases at all

B2: caspase-8 (NCBI accession no: NP-001073593.1), human, purchased from R&D Systems (protein)
chain: SESQTLDKVYQMKSKPRGYCLIINNHNFAKAREKVPKLHSIRDRNGTHLDAGALTTTFEELHFEIKPHDDCTVEQIYEILKIYQLMDHSNMDCFICCILSHGDKGIIYGTDGQEAPIYELTSQFTGLKCPSLAGKPKVFFIQACQGDNYQKGIPVETDSEEQPYLEMDLSSPQTRYIPDEADFLLGMATVNNCVSYRNPAEGTWYIQSLCQSLRERCPRGDDILTILTEVNYEVSNKDDKKNMGKQMPQPTFTLRKKLVFPSD
fluorescence signal (Cy5.5 dequenching after cleavage, 96-well plate, 37 C, 2 hours): fluorescence did not occur in reactions with another two capases at all
